± gives the uncertainty stated by the source.

This series can be described thus: amyloid nucleation score (Sup35N fusion, yeast selection) (log enrichment); library NNK1; higher = more nucleation; inactive = no reads after selection. Put shortly:
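The nucleation score is the log enrichment of output over input reads, calculated with DiMSum and centred on the mode score of non-aggregating sequences. Sequences with under 100 input reads were excluded. Reads came from Illumina sequencing of plasmid inserts from psi-negative yeast expressing Sup35N fused to peptides of 20 random codons, induced 24 hours with 100 μM copper sulfate and grown 7 days at 30°C without adenine and uracil.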
HLSMFDCVYSF came in with an amyloid nucleation score of 1.26 ± 0.9.

On to NMLFLSRGDP, for which the amyloid nucleation score was -0.499 ± 1.9. With NHCSLFCAFSW the figure was 1.86 ± 0.67; with SSLVVWNTQSSTLMTLLSYS, -0.915 ± 0.49; with CWGFYL, -0.976 ± 1.1.

For the substance EFKLIDLFLLYWLSREHNQF, the amyloid nucleation score came out at 0.391 ± 0.42. As for YYTVLLRS, the amyloid nucleation score was -0.453 ± 0.52.

Turning to ASSGPAIYFNGRQRTFYYSD, the amyloid nucleation score amounted to 1.05 ± 0.29. Next, VCLANGHWATHMHYIFHYLS: -0.915 ± 0.73. With SRFKTDYTG the figure was -0.492 ± 0.68; with LVVCAVVGSDLLWL, 0.848 ± 0.72; with WYPMYQNTYRAEERVT, 0.42 ± 0.64. Next, RLFALLWNDFDRSGVAMPVL: -0.379 ± 0.36; SRRYLRVGCKVNVHTFGLYL: -0.502 ± 1.

Substance VYGMITIDNRQVRVVLGFRS had an amyloid nucleation score of -0.549 ± 0.71.

With SSYVPSCCYWAVWFCVRGKY, the amyloid nucleation score worked out at 1.58 ± 0.46. For LCDFVLNIEREVNVYSFIKL, the amyloid nucleation score worked out at 2.34 ± 0.13. Take RCYYLGHVHRICGRWGWGPR: the amyloid nucleation score is 0.37 ± 0.52.

Substance IRRAENLFIRYSHR came in with an amyloid nucleation score of 0.855 ± 0.58. Next, CKDFRRAVVNEFPVSVSFYC: 0.922 ± 0.9; FDNTGDCTNFYQLSDWSP: 1.05 ± 0.22; PTMLKNRGVLSQPHIIFSYR: -0.333 ± 0.34. Next, LIMVFVDSLRNRLELCFFQC: “inactive”; EVFNEKSVSLRGWNIHGNFC: 0.03 ± 0.94.

Take IVASSISAQVSLLYRALCIY: the amyloid nucleation score was found to be 3.69 ± 0.16. With TIVRGSNYRPPVWPSDY the figure was -0.535 ± 1.1. For QNPFSTSHIVRSLLCLNDVI, the amyloid nucleation score result was “inactive”. As for RYICSYCYALCGFGDYYGGK, the amyloid nucleation score came out at 0.24 ± 0.34. With NNSSIVFLW the figure was -0.057 ± 1.4; with VIMLVNDAFVGI, -0.543 ± 0.26; with SWYIKVFRFGLFHWSSGVGW, “inactive”. With ICLESNRFI the entry was “inactive”; with WRSSSFSGIWYVSVGYNASL, -0.455 ± 0.4; with CSSWVMGLIFWECLKNMDKV, -1.39 ± 1.3. With SPRAWRMGHGLVGWVMEKKG the figure was 0.476 ± 1.1.

On to YNELKFRGYYNRCLECGFVR, for which the amyloid nucleation score is 0.495 ± 0.91. Substance IFALWTHKTPRQIAPLGTQK returned an amyloid nucleation score of -0.835 ± 1.3. With QGLNNMHSGVVLKMLT the figure was 1.22 ± 0.54; with VIVFCCSEDNRRGQLKV, -1.49 ± 0.84. The substance SSTAEDTMWARGSNKTLYQS displayed an amyloid nucleation score of 0.148 ± 0.44.

Turning to TYNRGMGGRISVFCLFTGVM, the amyloid nucleation score was 0.078 ± 0.21. Next, DLIMFD: -0.029 ± 0.73; GMSCWGLCSYNTRAYRNNPT: -0.151 ± 0.63; HLILRTLWYKYLREKFSE: -0.286 ± 0.3. Next, DCVKGHSECCRPSKLVKYWR: “inactive”; IPLGPGLPACINEGLKNPVS: -0.439 ± 0.67; RIMLFFCCSSKVFDFPVLLM: 6.4 ± 0.064.

Substance CGAELRIGGCSGPGGMFQTR registered an amyloid nucleation score of 0.031 ± 0.27.

Substance NYIMTRHPPLGISLPEVGRS displayed an amyloid nucleation score of -0.81 ± 0.85. With NSITAQRVWVPPFVCLGDRY the figure was 0.146 ± 0.44; with HTEYRKYRVCTFLK, 0.826 ± 0.4.

Regarding NSDGSLSKTRKRAGAQVSRQ, the amyloid nucleation score turned out to be 0.312 ± 1.1. In turn, IRHIRPFFNVKDI came in with an amyloid nucleation score of -0.006 ± 0.37. With SGLFPVLGEHGNHRVSGSI the figure was -1.4 ± 1.6. For ACYRATNMSCRRGHKLAGGF, the amyloid nucleation score result was “inactive”. The substance TDLFYMMCSRRQTYVCNLVR yielded an amyloid nucleation score of 0.456 ± 0.43.

KRLGWSSVFRLARVERVLRS registered an amyloid nucleation score of -0.929 ± 1.9.

For the substance HVLKGGRAAFVELRGKSHGL, the amyloid nucleation score was -0.081 ± 0.96. With TEELYTGVTFL the figure was -1.93 ± 1.5. The substance MGCWCLASRDLTKT came in with an amyloid nucleation score of -0.485 ± 1. In the case of SIDGWNSKVKGFEFRMGGT, the amyloid nucleation score was -0.045 ± 0.32. With SSGSMCTLFSSE the figure was 1.75 ± 0.57; with SALSGWVANSCYEVRGLRNV, “inactive”. With FPNLHLTELCLGRIYVRACY the entry was “inactive”; with TGNYDYVSFNQRKLHGCFNQ, -0.652 ± 0.93. For SMIPSNGTRLMLDSLTKYID, the amyloid nucleation score result was “inactive”.

In the case of RVTDLYFASGGQLMQRSVLL, the amyloid nucleation score was 0.331 ± 0.6.

For GHLQGPLSTLIHDW, the amyloid nucleation score came to 0.564 ± 0.47.

As to NLASNVRESVGSGIYLMNIS, the amyloid nucleation score came to 1.97 ± 0.6.

FCARGRNRPN showed an amyloid nucleation score of 1.04 ± 0.5. With AAAFYWLN the figure was -1.2 ± 1.3; with VFNTGYRVSRILDLGYKFNM, “inactive”. With RFEKTWHWSAIAGRQGGGIF the figure was -0.697 ± 0.88. In turn, CVANLPGSKVLVWNTKFK showed an amyloid nucleation score of 5.38 ± 0.056. With QFSCIPESTYSS the figure was 0.047 ± 0.41; with SSIESSYGKFLRGIVSESIK, 0.485 ± 0.55; with LLYVRVHCLTAGFADSEASI, -0.168 ± 0.4.

In the case of RVFQSNPCGT, the amyloid nucleation score came to 0.109 ± 1.4. In turn, TENVLLTYVFYAKSRLGSVV displayed an amyloid nucleation score of 0.921 ± 0.56. Next, QYDFQ: -0.532 ± 0.88. Next, ELRYCEFTCSISWA: 0.744 ± 0.36; ANMHRVKAYCHIFGLSHETE: -0.775 ± 0.73. In the case of YLNERE, the amyloid nucleation score was -1.16 ± 1. SHRSRGLANRSCDGVPTVRR registered an amyloid nucleation score of 1.84 ± 0.46. Next, PYVFPVRYYSTILWYAIYVR: 0.558 ± 0.28; CPGLFVGLCPMAHMVACCHR: “inactive”; LCCKVLLALSAPGQFSVHNA: -0.621 ± 1.4. Next, RLKYYNYERFRLVVLCRVHG: -0.053 ± 1.1.

For RGNDLFTQVASMKSV, the amyloid nucleation score was -0.207 ± 0.55.

On to KLSVGYRFWVLDSDFIVDDY, for which the amyloid nucleation score stood at 0.16 ± 0.23. Next, VSLCAQRYVIMMSIVRTKSL: 0.105 ± 0.22; MIRQYDCSVFKCRERYFWAF: 0.675 ± 0.85; SSLSSMLRGSWAGYVLNCL: “inactive”. With EVMPPLKLPRHFEEIRAEAG the figure was -0.184 ± 0.51. With LTEDMNYFAY the figure was 0.252 ± 0.46; with ISVCFWSIKYRSWAILMPKG, 0.077 ± 0.58; with HSGNTLIQMCVI, -0.083 ± 0.61. Regarding YLQFVRQRVCWLRLRPMMKA, the amyloid nucleation score is -0.183 ± 0.56. With ATAVYMSVLMVPDLRMKAEG the figure was 1.5 ± 0.7. Next, NLFLVIPAFDLLMFGSERSS: 5.55 ± 0.063; LYLDIWYCQIKVTFIGP: “inactive”. The substance FIEHTYVEEG gave an amyloid nucleation score of 0.19 ± 0.23.

DQFLGYMANVAGVVP registered an amyloid nucleation score of 0.686 ± 0.34. With RLFHFWQSDGLVGSTKRVDY the figure was 0.128 ± 0.42; with FYKTL, -1.19 ± 1.2; with SWAWIACIGAMNPEN, -0.478 ± 1.4. Take LWVVPLE: the amyloid nucleation score is -0.643 ± 1.9. Next, SVLVWADLCHDTEA: 0.42 ± 0.84; KELCGLRGYTFYEQF: 0.588 ± 0.74. In turn, RDTNKSIQ registered an amyloid nucleation score of 0.208 ± 0.56.

Substance PGSCFVMCCDLDKRKGSADE came in with an amyloid nucleation score of -0.559 ± 0.62. Take SIQPIW: the amyloid nucleation score was found to be 0.952 ± 0.5. As for VCNFLFAFSFW, the amyloid nucleation score amounted to 6.746 ± 0.064. Substance CQLNTASVSNNGGRVLGMYR showed an amyloid nucleation score of 0.529 ± 0.79. With IYPRMCLRGFAACV the figure was 2.91 ± 0.13; with RVAYSGEL, 0.196 ± 0.83; with IYYTSWYINAYLCGHMPVRG, 2.52 ± 0.23. The substance ARCCWRG came in with an amyloid nucleation score of -0.849 ± 1.1. Next, CFYNKRLCGRPFMLVWQNYS: 0.161 ± 0.56.

In turn, QDFILDNCFPEGNLVCFKGV returned an amyloid nucleation score of 0.361 ± 0.58.

As for CRLVVMVIVQLHGIDFELAL, the amyloid nucleation score worked out at 0.951 ± 0.54. With LLDGYSLDNIGLEVGNASSN the figure was 0.53 ± 0.41; with HSSWEYSSYGVPSNMEKDWV, “inactive”. Next, QMTCSD: 1.6 ± 0.8; DAYTGCIDNSVANAG: 0.481 ± 0.6. RIYSFHILVS gave an amyloid nucleation score of -0.629 ± 0.38. With RYFLEMISRYISRN the entry was “inactive”. With MMRGTLC the figure was 0.458 ± 0.41; with PNYHGVRGM, -0.086 ± 1.2; with RWYVEPSSMFLSRLDGLFYK, -0.702 ± 1.9. Next, NVVAYTCNFFCDGSLSGYLC: 0.784 ± 0.41. In the case of LYRAAEYSLRILRLKATYPA, the amyloid nucleation score was -0.134 ± 0.89. Next, PRLYGISRKSYVLSIFDVVS: 0.245 ± 0.21; TLVIVTFFMIFIGMVSVFYR: 1.27 ± 0.25; SKCAVQCLVG: 0.986 ± 0.2.

The substance MKVRQDRKPYWVAESAMCVC returned an amyloid nucleation score of -0.261 ± 0.59. With VTNYGYDLFVLILDGAMNLS the figure was 0.407 ± 0.51.

The substance ISGMRGFILLGRRVFTKVSS yielded an amyloid nucleation score of -0.277 ± 0.33.

On to SGAGVGSPVVKELSWFKLKV, for which the amyloid nucleation score stood at 0.331 ± 0.77.
